Results taken from the supplement of paper PMC12458215.
± gives the uncertainty stated by the source.

Test system: HEK293T
Assay: plasma membrane surface immunostaining intensity (anti-HA, deep receptor scanning) (arbitrary fluorescence units); higher = higher plasma membrane expression

| Sequence | plasma membrane surface immunostaining intensity (GPCR class: A) | plasma membrane surface immunostaining intensity (GPCR class: A (Olfactory)) | further results |
| --- | --- | --- | --- |
| MQPPPSLCGRALVALVLACGLSRIWGEERGFPPDRATPLLQTAEIMTPPTKTLWPKGSNASLARSLAPAEVPKGDRTAGSPPRTISPPPCQGPIEIKETFKYINTVVSCLVFVLGIIGNSTLLRIIYKNKCMRNGPNILIASLALGDLLHIVIDIPINVYKLLAEDWPFGAEMCKLVPFIQKASVGITVLSLCALSIDRYRAVASWSRIKGIGVPKWTAVEIVLIWVVSVVLAVPEAIGFDIITMDYKGSYLRICLLHPVQKTAFMQFYKTAKDWWLFSFYFCLPLAITAFFYTLMTCEMLRKKSGMQIALNDHLKQRREVAKTVFCLVLVFALCWLPLHLSRILKLTLYNQNDPNRCELLSFLLVLDYIGINMASLNSCINPIALYLVSKRFKNCFKSCLCCWCQSFEEKQSLEEKQSCLKFKANDHGYDNFRSSNKYSSS [EDNRB] | 794 ± 140 | – | – |
| MPNFTDVTEFTLLGLTCRQELQVLFFVVFLAVYMITLLGNIGMIILISISPQLQSPMYFFLSHLSFADVCFSSNVTPKMLENLLSETKTISYVGCLVQCYFFIAVVHVEVYILAVMAFDRYMAGCNPLLYGSKMSRTVCVRLISVPYVYGFSVSLICTLWTYGLYFCGNFEINHFYCADPPLIQIACGRVHIKEITMIVIAGINFTYSLSVVLISYTLIVVAVLRMRSADGRRKAFSTCGSHLTAVSMFYGTPIFMYLRRPTEESVEQGKMVAVFYTTVIPMLNPMIYSLRNKDVKEAVNKAITKTYVRQ [OR5M9] | – | 133 ± 54 | – |
| MNSENLTRAAVAPAEFVLLGITNRWDLRVALFLTCLPVYLVSLLGNMGMALLIRMDARLHTPMYFFLANLSLLDACYSSAIGPKMLVDLLLPRATIPYTACALQMFVFAGLADTECCLLAAMAYDRYVAIRNPLLYTTAMSQRLCLALLGASGLGGAVSAFVHTTLTFRLSFCRSRKINSFFCDIPPLLAISCSDTSLNELLLFAICGFIQTATVLAITVSYGFIAGAVIHMRSVEGSRRAASTGGSHLTAVAMMYGTLIFMYLRPSSSYALDTDKMASVFYTLVIPSLNPLIYSLRNKEVKEALRQTWSRFHCPGQGSQ [OR5C1] | – | 177 ± 14 | – |
| MAWENQTFNSDFILLGIFNHSPPHTFLFFLVLGIFLVAFMGNSVMVLLIYLDTQLHTPMYFLLSQLSLMDLMLICTTVPKMAFNYLSGSKSISMAGCVTQIFFYISLSGSECFLLAVMAYDRYIAICHPLRYTNLMNPKICGLMATFSWILGSTDGIIDAVATFSFSFCGSREIAHFFCEFPSLLILSCNDTSIFEEVIFICCIVMLVFPVAIIIASYARVILAVIHMGSGEGRCKAFTTCSSHLMVVGMYYGAALFMYIRPTSDHSPTQDKMVSVFYTILTPMLNPLIYSLRNKEVTRAFMKILGKGKSESELPHKLYVLLFAKFFFLISIFFYDVKILALIMYIA [OR2M2] | – | 134 ± 22 | – |
| MQPESGANGTVIAEFILLGLLEAPGLQPVVFVLFLFAYLVTVRGNLSILAAVLVEPKLHTPMYFFLGNLSVLDVGCISVTVPSMLSRLLSRKRAVPCGACLTQLFFFHLFVGVDCFLLTAMAYDRFLAICRPLTYSTRMSQTVQRMLVAASWACAFTNALTHTVAMSTLNFCGPNVINHFYCDLPQLFQLSCSSTQLNELLLFAVGFIMAGTPMALIVISYIHVAAAVLRIRSVEGRKKAFSTCGSHLTVVAIFYGSGIFNYMRLGSTKLSDKDKAVGIFNTVINPMLNPIIYSFRNPDVQSAIWRMLTGRRSLA [OR3A1] | – | 125 ± 18 | – |
| MSASNITLTHPTAFLLVGIPGLEHLHIWISIPFCLAYTLALLGNCTLLLIIQADAALHEPMYLFLAMLAAIDLVLSSSALPKMLAIFWFRDREINFFACLAQMFFLHSFSIMESAVLLAMAFDRYVAICKPLHYTKVLTGSLITKIGMAAVARAVTLMTPLPFLLRCFHYCRGPVIAHCYCEHMAVVRLACGDTSFNNIYGIAVAMFIVVLDLLLVILSYIFILQAVLLLASQEARYKAFGTCVSHIGAILAFYTTVVISSVMHRVARHAAPHVHILLANFYLLFPPMVNPIIYGVKTKQIRESILGVFPRKDM [OR52K2] | – | 441 ± 130 | – |
| MRWLWPLAVSLAVILAVGLSRVSGGAPLHLGRHRAETQEQQSRSKRGTEDEEAKGVQQYVPEEWAEYPRPIHPAGLQPTKPLVATSPNPGKDGGTPDSGQELRGNLTGAPGQRLQIQNPLYPVTESSYSAYAIMLLALVVFAVGIVGNLSVMCIVWHSYYLKSAWNSILASLALWDFLVLFFCLPIVIFNEITKQRLLGDVSCRAVPFMEVSSLGVTTFSLCALGIDRFHVATSTLPKVRPIERCQSILAKLAVIWVGSMTLAVPELLLWQLAQEPAPTMGTLDSCIMKPSASLPESLYSLVMTYQNARMWWYFGCYFCLPILFTVTCQLVTWRVRGPPGRKSECRASKHEQCESQLNSTVVGLTVVYAFCTLPENVCNIVVAYLSTELTRQTLDLLGLINQFSTFFKGAITPVLLLCICRPLGQAFLDCCCCCCCEECGGASEASAANGSDNKLKTEVSSSIYFHKPRESPPLLPLGTPC [GPR37L1] | 148 ± 21 | – | – |
| MPSKSLSNLSVTTGANESGSVPEGWERDFLPASDGTTTELVIRCVIPSLYLLIITVGLLGNIMLVKIFITNSAMRSVPNIFISNLAAGDLLLLLTCVPVDASRYFFDEWMFGKVGCKLIPVIQLTSVGVSVFTLTALSADRYRAIVNPMDMQTSGALLRTCVKAMGIWVVSVLLAVPEAVFSEVARISSLDNSSFTACIPYPQTDELHPKIHSVLIFLVYFLIPLAIISIYYYHIAKTLIKSAHNLPGEYNEHTKKQMETRKRLAKIVLVFVGCFIFCWFPNHILYMYRSFNYNEIDPSLGHMIVTLVARVLSFGNSCVNPFALYLLSESFRRHFNSQLCCGRKSYQERGTSYLLSSSAVRMTSLKSNAKNMVTNSVLLNGHSMKQEMAL [NMBR] | 2430 ± 1200 | – | – |
| MDTGPDQSYFSGNHWFVFSVYLLTFLVGLPLNLLALVVFVGKLQRRPVAVDVLLLNLTASDLLLLLFLPFRMVEAANGMHWPLPFILCPLSGFIFFTTIYLTALFLAAVSIERFLSVAHPLWYKTRPRLGQAGLVSVACWLLASAHCSVVYVIEFSGDISHSQGTNGTCYLEFRKDQLAILLPVRLEMAVVLFVVPLIITSYCYSRLVWILGRGGSHRRQRRVAGLLAATLLNFLVCFGPYNVSHVVGYICGESPAWRIYVTLLSTLNSCVDPFVYYFSSSGFQADFHELLRRLCGLWGQWQQESSMELKEQKGGEEQRADRPAERKTSEHSQGCGTGGQVACAES [FFAR3] | 6440 ± 110 | – | – |
| MERTNDSTSTEFFLVGLSAHPKLQTVFFVLILWMYLMILLGNGVLISVIIFDSHLHTPMYFFLCNLSFLDVCYTSSSVPLILASFLAVKKKVSFSGCMVQMFISFAMGATECMILGTMALDRYVAICYPLRYPVIMSKGAYVAMAAGSWVTGLVDSVVQTAFAMQLPFCANNVIKHFVCEILAILKLACADISINVISMTGSNLIVLVIPLLVISISYIFIVATILRIPSTEGKHKAFSTCSAHLTVVIIFYGTIFFMYAKPESKASVDSGNEDIIEALISLFYGVMTPMLNPLIYSLRNKDVKAAVKNILCRKNFSDGK [OR13C8] | – | 129 ± 16 | – |
| MRTLNTSAMDGTGLVVERDFSVRILTACFLSLLILSTLLGNTLVCAAVIRFRHLRSKVTNFFVISLAVSDLLVAVLVMPWKAVAEIAGFWPFGSFCNIWVAFDIMCSTASILNLCVISVDRYWAISSPFRYERKMTPKAAFILISVAWTLSVLISFIPVQLSWHKAKPTSPSDGNATSLAETIDNCDSSLSRTYAISSSVISFYIPVAIMIVTYTRIYRIAQKQIRRIAALERAAVHAKNCQTTTGNGKPVECSQPESSFKMSFKRETKVLKTLSVIMGVFVCCWLPFFILNCILPFCGSGETQPFCIDSNTFDVFVWFGWANSSLNPIIYAFNADFRKAFSTLLGCYRLCPATNNAIETVSINNNGAAMFSSHHEPRGSISKECNLVYLIPHAVGSSEDLKKEEAAGIARPLEKLSPALSVILDYDTDVSLEKIQPITQNGQHPT [DRD1] | 1460 ± 310 | – | – |
| MVLNVYCCFFQISDIQTMKINQTILKEFILVGFSVYPHVQTFLFVVFFCLYLLTLAGNLIIMGLTWVDRSLHTPMYLFLSALSFSETCYTLTIVPKMLEDLLAKDRSISVTGCSLQMCFFLGLGGTNCIILTLMGYDRFLAICNPLRYPLLMTNIVCGQLVASACTAGFFISLTETALIFRDSFCRPNLVKHFFCHMLAVIRLSCIDSNHTEFIITLISVSGLLGTLLLIILTDVFIISTVLRIPSAEGKQKAFTTCASHLTVVIIHFGFASIVYLKPEASGDDTLIAVPYTVITPFLSPIIFSLRNKDMKNAFRRMMGNTVALKK [OR10X1] | – | 233 ± 96 | – |
| MDLPPQLSFGLYVAAFALGFPLNVLAIRGATAHARLRLTPSLVYALNLGCSDLLLTVSLPLKAVEALASGAWPLPASLCPVFAVAHFFPLYAGGGFLAALSAGRYLGAAFPLGYQAFRRPCYSWGVCAAIWALVLCHLGLVFGLEAPGGWLDHSNTSLGINTPVNGSPVCLEAWDPASAGPARFSLSLLLFFLPLAITAFCYVGCLRALARSGLTHRRKLRAAWVAGGALLTLLLCVGPYNASNVASFLYPNLGGSWRKLGLITGAWSVVLNPLVTGYLGRGPGLKTVCAARTQGGKSQK [FFAR1] | 265 ± 37 | – | – |
| MAVGRNNTIVTKFILLGLSDHPQMKIFLFMLFLGLYLLTLAWNLSLIALIKMDSHLHMPMYFFLSNLSFLDICYVSSTAPKMLSDIITEQKTISFVGCATQYFVFCGMGLTECFLLAAMAYDRYAAICNPLLYTVLISHTLCLKMVVGAYVGGFLSSFIETYSVYQHDFCGPYMINHFFCDLPPVLALSCSDTFTSEVVTFIVSVVVGIVSVLVVLISYGYIVAAVVKISSATGRTKAFSTCASHLTAVTLFYGSGFFMYMRPSSSYSLNRDKVVSIFYALVIPVVNPIIYSFRNKEIKNAMRKAMERDPGISHGGPFIFMTLG [OR5A2] | – | 267 ± 110 | – |
| MEDFNMESDSFEDFWKGEDLSNYSYSSTLPPFLLDAAPCEPESLEINKYFVVIIYALVFLLSLLGNSLVMLVILYSRVGRSVTDVYLLNLALADLLFALTLPIWAASKVNGWIFGTFLCKVVSLLKEVNFYSGILLLACISVDRYLAIVHATRTLTQKRYLVKFICLSIWGLSLLLALPVLLFRRTVYSSNVSPACYEDMGNNTANWRMLLRILPQSFGFIVPLLIMLFCYGFTLRTLFKAHMGQKHRAMRVIFAVVLIFLLCWLPYNLVLLADTLMRTQVIQETCERRNHIDRALDATEILGILHSCLNPLIYAFIGQKFRHGLLKILAIHGLISKDSLPKDSRPSFVGSSSGHTSTTL [CXCR2] | 266 ± 3.4 | – | – |
| MGTARIAPGLALLLCCPVLSSAYALVDADDVMTKEEQIFLLHRAQAQCEKRLKEVLQRPASIMESDKGWTSASTSGKPRKDKASGKLYPESEEDKEAPTGSRYRGRPCLPEWDHILCWPLGAPGEVVAVPCPDYIYDFNHKGHAYRRCDRNGSWELVPGHNRTWANYSECVKFLTNETREREVFDRLGMIYTVGYSVSLASLTVAVLILAYFRRLHCTRNYIHMHLFLSFMLRAVSIFVKDAVLYSGATLDEAERLTEEELRAIAQAPPPPATAAAGYAGCRVAVTFFLYFLATNYYWILVEGLYLHSLIFMAFFSEKKYLWGFTVFGWGLPAVFVAVWVSVRATLANTGCWDLSSGNKKWIIQVPILASIVLNFILFINIVRVLATKLRETNAGRCDTRQQYRKLLKSTLVLMPLFGVHYIVFMATPYTEVSGTLWQVQMHYEMLFNSFQGFFVAIIYCFCNGEVQAEIKKSWSRWTLALDFKRKARSGSSSYSYGPMVSHTSVTNVGPRVGLGLPLSPRLLPTATTNGHPQLPGHAKPGTPALETLETTPPAMAAPKDDGFLNGSCSGLDEEASGPERPPALLQEEWETVM [PTH1R] | – | – | plasma membrane surface immunostaining intensity (GPCR class: B): 770 ± 69 |
